Biological target: human V158 FcγRIIIa (FcγR-His) (human) (UniProt P08637)
Test: Biacore SPR

Chain of human V158 FcγRIIIa (FcγR-His) (human) (P08637 17-208 F176V limits assumed): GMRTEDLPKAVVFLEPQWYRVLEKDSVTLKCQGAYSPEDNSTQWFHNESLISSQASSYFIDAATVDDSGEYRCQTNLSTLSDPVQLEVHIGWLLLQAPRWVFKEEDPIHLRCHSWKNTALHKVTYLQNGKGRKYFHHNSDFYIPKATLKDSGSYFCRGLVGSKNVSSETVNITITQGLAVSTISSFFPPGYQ

Kd: 240 nM
Substance: 4G7 IgG1 antibody (chimeric, murine H0/L0 variable regions on human IgG1/kappa)

From US20080260731A1
